Data published in the DeepSol protein solubility set.

assay: soluble on expression in E. coli; label from the status in PepcDB or PDB records

Soluble on expression in E. coli, soluble:
GLVPRGSHMMEILRGSPALSAFRINKLLARFQAANLQVHNIYAEYVHFADLNAPLNDSEQAQLTRLLQYGPALSSHTPAGKLLLVTPRPGTISPWSSKATDIAHNCGLQQVDRLERGVAYYIEASTLTAEQWRQVAAELHDRMMETVFSSLTDAEKLFIHHQPAPVSSVDLLGEGRQALIDANLRLGLALAEDEIDYLQEAFTKLGRNPNDIELYMFAQANSEHCRHKIFNADWIIDGKPQPKSLFKMIKNTFETTPDYVLSAYKDNAAVMEGSAVGRYFADHNTGRYDFHQEPAHILMKVETHNHPTAISPWPGAATGSGGEIRDEGATGRGAKPKAGLVGFSVSNLRIPGFEQPWEEDFGKPERIVTALDIMTEGPLGGAAFNNEFGRPALTGYFRTYEEKVNSHNGEELRGYHKPIMLAGGIGNIRADHVQKGEIVVGAKLIVLGGPAMNIGLGGGAASSMASGQSDADLDFASVQRDNPEMERRCQEVIDRCWQLGDANPILFIHDVGAGGLSNAMPELVSDGGRGGKFELRDILSDEPGMSPLEIWCNESQERYVLAVAADQLPLFDELCKRERAPYAVIGDATEEQHLSLHDNHFDNQPIDLPLDVLLGKTPKMTRDVQTLKAKGDALNRADITIADAVKRVLHLPTVAEKTFLVTIGDRTVTGMVARDQMVGPWQVPVADCAVTTASLDSYYGEAMSIGERAPVALLDFAASARLAVGEALTNIAATQIGDIKRIKLSANWMAAAGHPGEDAGLYDAVKAVGEELCPQLGLTIPVGKDSMSMKTRWQEGNEQREMTSPLSLVISAFARVEDVRHTLTPQLSTEDNALLLIDLGKGHNALGATALAQVYRQLGDKPADVRDVAQLKGFYDAMQALVAARKLLAWHDRSDGGLLVTLAEMAFAGHCGVQVDIAALGDDHLAALFNEELGGVIQVRAEDRDAVEALLAQYGLADCVHYLGQALAGDRFVITANDQTVFSESRTTLRVWWAETTWQMQRLRDNPQCADQEHEAKANDTDPGLNVKLSFDINEDIAAPYIATGARPKVAVLREQGVNSHVEMAAAFHRAGFDAIDVHMSDLLGGRIGLGNFHALVACGGFSYGDVLGAGEGWAKSILFNHRVRDEFETFFHRPQTLALGVCNGCQMMSNLRELIPGSELWPRFVRNHSDRFEARFSLVEVTQSPSLLLQGMVGSQMPIAVSHGEGRVEVRDDAHLAALESKGLVALRYVDNFGKVTETYPANPNGSPNGITAVTTENGRVTIMMPHPERVFRTVANSWHPENWGEDSPWMRIFRNARKQLG, GMAEKQYDFTHVPKRQGNSIKWGVLKEKELPMWIAEMDFKIAPEIMASMEEKLKVAAFGYESVPAEYYKAVADWEEIEHRARPKEDWCVFASGVVPAISAMVRQFTSPGDQILVQEPVYNMFYSVIEGNGRRVISSDLIYENSKYSVNWADLEEKLATPSVRMMVFCNPHNPIGYAWSEEEVKRIAELCAKHQVLLISDEIHGDLVLTDEDITPAFTVDWDAKNWVVSLISPSKTFNLAALHAACAIIPNPDLRARAEESFFLAGIGEPNLLAIPAAIAAYEEGHDWLRELKQVLRDNFAYAREFLAKEVPEVKVLDSNASYLAWVDISALGMNAEDFCKYLREKTGLIISAGNGYRGNGHEFVRINLACPKELVIDGMQRLKQGVLNLNN, GMAPDQQVPATALGKSSRISLDGRRSERSVILADGSMHSLTLLHPGVYTLSSEVAETIRVLSGMAYYHAEGANDVQELHAGDSMVIPANQSYRLEVMEPLDYLLSS, GMFTCKVNEHITIRLLEPKDAERLAELIIQNQQRLGKWLFFAENPSSADTYRETIIPDWRRQYADLNGIEAGLLYDGSLCGMISLHNLDQVNRKAEIGYWIAKEFEGKGIITAACRKLITYAFEELELNRVAICAAVGNEKSRAVPERIGFLEEGKARDGLYVNGMHHDLVYYSLLKREWEGEK, GMIPFPESRLAAQMSFVVEIDKLKTILRQTLLTDSSRRENDAEHSWHIATMAFLLAEYADEAVQIGRVARMLLIHDIVEIDAGDTFIHDEAGNEDKEERERKAAARLFGLLPPDQAAEYSALWQEYEARETADARFADALDRLQPLLHNFETEGGTWKPHGVTRAKVDKLLPRIEAGSKRLGAYARALVDEAVRRGYLAP, GMMNDYLNFLDGRVSVRRFDPDAVLPNDLIKDMLEHASYAPSGNNFQPWRVVVVKNKNKQEDLKKLAALQPQVATASAVFLLFGDENAYDLTWWQEFHVQKGIITKDEAAARAERIRQYFDLHPEDKETQGLRLDVGLFAMNLMQVVRVYGYDSVPMRGVDFDAIKTYLDMPNGWEPILMLPVGKALQAGNPHVRKSVAEFAEIIE
